According to US8598320B2, “Anti-PCSK9 and methods for treating lipid and cholesterol disorders” (Merck Sharp & Dohme Corp., priority 2007, dated 2013):
Where “and” joins values, the source holds several entries; their conditions need not be identical. Identical values can stand only once. Marks after values point to notes of the source that are not given here.

Tests used:
PCSK9/LDLR interaction = PCSK9/LDLR interaction (Homo sapiens, UniProt Q8NBP7); assay: Alphascreen binding assay: inhibition of PCSK9/LDLR interaction (Example 3)
Text: An Amplified Luminescent Proximity Homogeneous Assay (ALPHA, Perkin-Elmer; Waltham, Mass.) capable of directly determining the interaction between PCSK9-FLAG and a putative binding partner was used to determine the effect of anti-PCSK9 antibodies on this interaction. This technique required that “donor” and “acceptor” beads be brought into proximity via protein-protein interaction, resulting in increased luminescence (Ullman et al., Proc. Nat. Acad. Sci. (1994) 91:5426-5430). In the basic assay, LDL receptor binding to PCSK9 was determined as follows: 5 μl of recombinant receptor at the appropriate concentrations was incubated with 2.5 μl PCSK9-FLAG (1.4 μg/ml, 30 min). About 2.5 μl of biotinylated anti-Flag-M2 antibody (1.8 μg/ml) was added and the mixture incubated for 1 hour. Afterward 5 μl of streptavidin donor bead and nickel chelate acceptor bead (1:1 mixture) was added and the assay incubated overnight. AlphaScreen signal (counts per second) was analyzed using an EnVision microplate reader (Perkin-Elmer). All data points were determined in triplicate. Assays were carried out at 23° C. in buffer containing 25 mM HEPES, 0.1 M NaCl, pH 7.4, 0.1% BSA. The inhibition assays were determined similarly with slight adjustments to assay volumes and protein concentrations. Briefly, 5 μl of 1.25 μg/ml of PCSK9-Flag and 1.25 μg/ml of His-tagged LDL receptor was incubated with 2.5 μl of antibody at the appropriate concentrations for 30 minutes followed by the addition of 2.5 μl of anti-Flag-BioM2 (1.8 μg/ml) and a 1 hour incubation.

PCSK9 [1] = target: T1, PCSK9 (Homo sapiens, UniProt Q8NBP7); assay: In-cell western: inhibition of PCSK9-mediated LDLR degradation in HepG2 cells; format: cell-based; set-up: The protein was added exogenously to HepG2 cells; key to Relative level of inhibition of LDLR degradation observed: Greater number of + symbols indicates a greater level of inhibition relative to other treatments.; ++: Greater number of + symbols indicates a greater level of inhibition relative to other treatments.; +++: Greater number of + symbols indicates a greater level of inhibition relative to other treatments; details: for Relative level of inhibition of LDLR degradation observed: PCSK9 100 nM, 18 hours, LDLR normalized to β-actin
Description: The 75B9, 77D10, 11B5, 22D11, 1F11/1G11 and 29C10 antibodies were evaluated in an in-cell western assay for their ability to inhibit the degradation of the LDL receptor by PCSK9 in HepG2 cells.
In-cell western was performed to quantitate anti-PCSK9 antibody inhibition of PCSK9-mediated LDLR degradation. HepG2 cells were seeded in 384-well collagen I coated plates and treated with anti-PCSK9 antibody and/or PCSK9 (100 nM) for 18 hours. Detection of LDLR and β-actin was performed according to the manufacturer's protocol (Li-Cor Biosciences; Lincoln, Nebr.) using the antibodies described above in conjunction with IRDye 800CW goat anti-rabbit (Li-Cor) and IRDye 680 goat anti-mouse (Li-Cor). The assay was read on an Odyssey infrared imaging system (Li-Cor) and the signal for LDLR protein in each well normalized to β-actin content.

PCSK9 [2] = target: T1, PCSK9; assay: In vivo inhibition of liver LDLR degradation in mice (Western blot); set-up: host or cells: Exogenous protein injected into male C57BL/6J mice; details: for LDLR/GAPDH / LDLR (band intensity): liver, individual mice 107-110; for LDLR (band intensity): 400 μg antibody i.p., 10 μg human PCSK9 i.v.; for Mean LDLR/GAPDH: Antibody and PCSK9 group; for % Change: mean LDLR/GAPDH vs. Saline only control
Description: (§1) The ability of an anti-PCSK9 antibody (1F11/1G11) to inhibit LDL receptor degration in mice was evaluated in these assays along with the ability of the antibodies to modulate cholesterol levels.
(§2) Time-0: Male C57BL16j mice were injected, intraperitoneal, with 400 μg of anti-human PCSK9 Antibody, 1F11/1G11. • Time-2 hours: Mice were then injected, intravenously, with 10 μg of human PCSK9 Protein. • Time-4 hours: Mice were terminated and plasma and liver samples were collected. Analysis:
Protein levels of Liver LDL Receptor were determined by Western Blot. 40 μg of each liver homogenate was separated on an Invitrogen 4-12% NuPAGE gel, transferred to PVDF membrane and incubated with goat anti-mouse LDL receptor antibody (rabbit anti-GAPDH antibody was used as a control for equal loading). Membranes were then incubated with corresponding HRP-linked antibodies and visualization was accomplished with high performance chemiluminescence film. Band intensities were quantified using ImageQuant 5.2 software.
LDL receptor levels were expressed in Arbitrary Units (AU) as a ratio of LDL receptor band intensity to GAPDH band intensity. Two separate analyses of the data are presented, […]

PCSK9 [3] = target: T1, PCSK9; assay: Plasma cholesterol in mice injected with human PCSK9; format: in vivo; set-up: host or cells: Exogenous protein injected into male C57BL/6J mice; details: Male C57BL16j mice; 400 μg antibody i.p., 10 μg human PCSK9 i.v. at 2 hours; plasma at 4 hours
Description: as §1, §2
Plasma lipoprotein profiles of individual mice (0.1 mL plasma) were determined by fast protein liquid chromatography (FPLC) with a Pharmacia Superose 6 column. FPLC fraction cholesterol levels were determined using Wako Cholesterol Enzymatic colorimetric method.

T1 sequence (Q8NBP7 153-692): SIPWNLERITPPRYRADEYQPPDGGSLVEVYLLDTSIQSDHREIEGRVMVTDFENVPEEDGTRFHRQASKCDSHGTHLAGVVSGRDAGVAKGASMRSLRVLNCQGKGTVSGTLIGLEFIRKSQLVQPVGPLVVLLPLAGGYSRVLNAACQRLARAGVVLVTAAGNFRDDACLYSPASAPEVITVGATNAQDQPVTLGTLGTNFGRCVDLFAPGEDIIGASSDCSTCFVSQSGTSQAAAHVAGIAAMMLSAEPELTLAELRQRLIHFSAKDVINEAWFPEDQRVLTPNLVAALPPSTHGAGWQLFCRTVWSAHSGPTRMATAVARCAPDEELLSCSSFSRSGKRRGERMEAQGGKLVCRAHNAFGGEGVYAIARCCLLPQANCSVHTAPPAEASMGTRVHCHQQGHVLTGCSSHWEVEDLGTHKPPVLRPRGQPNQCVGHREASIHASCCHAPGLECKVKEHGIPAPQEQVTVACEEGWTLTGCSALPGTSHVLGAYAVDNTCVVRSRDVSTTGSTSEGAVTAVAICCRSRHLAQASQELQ
Sequence of PCSK9/LDLR interaction (Q8NBP7 153-692): as above
Sequence of PCSK9/LDLR interaction (Q8NBP7 31-152 partner limits assumed): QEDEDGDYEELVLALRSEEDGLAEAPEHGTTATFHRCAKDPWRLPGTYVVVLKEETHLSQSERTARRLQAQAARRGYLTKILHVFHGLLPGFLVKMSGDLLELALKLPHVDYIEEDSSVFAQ

B1: 75B9: mouse anti-human PCSK9 antibody (IgG2a); heavy chain SEQ ID NO: 18, light chain SEQ ID NO: 22 (antibody, listed as Mus musculus, V domains shown)
VH: EVQLQQSGADLVKPGASVKLSCTASGFNIKDTYIHWVKQRPEQGLEWIGRIDPANGHTEYDPKFQGRATLTTDTSSNTAYLQLFSLTSEDSAVYFCARSYYGSIFAYWGQGTLVTVSA
VL: QIVLTQSPAIMSASPGEKVTISCSASSSVSYLFWYQQKPGSSPKPWIFRTSYLASGVPARFSGSGSGTSFSLTISSMEAEDAATYYCHQYHTYPPTFGGGTKLEIKRA
Inhibition of PCSK9/LDL receptor interaction (in words) (PCSK9/LDLR interaction): effectively inhibit interaction between PCSK9 and the LDL receptor | Inhibition of PCSK9-mediated LDL receptor degradation (in words) (PCSK9 [1]): inhibit PCSK9-mediated LDL receptor degradation | Relative level of inhibition of LDLR degradation observed (PCSK9 [1]): ++

B2: 77D10: mouse anti-human PCSK9 antibody (IgG2b); heavy chain SEQ ID NO: 26, light chain SEQ ID NO: 30 (antibody, listed as Mus musculus, V domains shown)
VH: EVQLQQSGAELVRSGASVKLSCTTSGFNIKDYYIHWVKQRPEQGLEWIGWIDPENGDTEYAPKFQGKATMTADTSSNTAYLQLSSLTSADTAVYYCNAYYRYDDGTWFPYWGQGTLVTVSA
VL: DIQLTQSPASLSASVGETVTITCRASGNIHSYLAWYQQKQGKSPQFLVDNAKTLPDGVPSRFSVSGSGTQYSLKINSLQPEDFGTYYCQHFWNTPWTFGGGTKLEIKRA
Inhibition of PCSK9/LDL receptor interaction (in words) (PCSK9/LDLR interaction): effectively inhibit interaction between PCSK9 and the LDL receptor | Inhibition of PCSK9-mediated LDL receptor degradation (in words) (PCSK9 [1]): inhibit PCSK9-mediated LDL receptor degradation | Relative level of inhibition of LDLR degradation observed (PCSK9 [1]): ++

B3: 11B5: mouse anti-human PCSK9 antibody (IgG2a); heavy chain SEQ ID NO: 10, light chain SEQ ID NO: 14 (antibody, listed as Mus musculus, V domains shown)
VH: EVQLQQSGAELVKPGASVTLSCTASGFNIKDTYMHWVNQRPEQGLVWIGRIDPANGHTEYDPKFQDKATITTDTSSNTAYLHLSSLTSGDTAVYYCARSYFGSIFAYWGQGTLVTVSA
VL: QIVLTQSPAIMSASPGEKVTISCSASSSVSYLYWYQQKPGSSPKPWIFRSSHRASGVPARFSGSGSGTSYSLTISSMEAEDAATYYCHQYQSYPPTFGGGTKLEIKRA
Inhibition of PCSK9/LDL receptor interaction (in words) (PCSK9/LDLR interaction): effectively inhibit interaction between PCSK9 and the LDL receptor | Inhibition of PCSK9-mediated LDL receptor degradation (in words) (PCSK9 [1]): inhibit PCSK9-mediated LDL receptor degradation | Relative level of inhibition of LDLR degradation observed (PCSK9 [1]): ++

B4: 22D11: anti-human PCSK9 antibody (IgG1); heavy chain SEQ ID NO: 42, light chain SEQ ID NO: 46 (antibody, listed as Mus musculus, V domains shown)
VH: EVQLVDSGGGLVQPGRSLKLSCAASGFTFSNHDMAWVRQAPTKGLEWVASITPSGGTTYYRDSVEGRFTVSRDNVKSSLHLQMDSLTSEDTATYYCARQNYYDGSYYYGLYYFDYWGQGVMVTVSS
VL: DVLMTQTPVSLPVSLGGQVSISCRSSQSLVYSDGNTYLHWYLQKPGQSPQLLIYRVSNRFSGVPDRFSGSGSGTDFTLKISRVEPEDLGLYYCLQSTHFPPTFGSGTKLEIKRA
Inhibition of PCSK9/LDL receptor interaction (in words) (PCSK9/LDLR interaction): effectively inhibit interaction between PCSK9 and the LDL receptor | Inhibition of PCSK9-mediated LDL receptor degradation (in words) (PCSK9 [1]): inhibit PCSK9-mediated LDL receptor degradation | Relative level of inhibition of LDLR degradation observed (PCSK9 [1]): +

B5: 1F11/1G11: mouse anti-human PCSK9 antibody (IgG2a); heavy chain SEQ ID NO: 50, light chain SEQ ID NO: 54 (antibody, listed as Mus musculus, V domains shown)
VH: EVQLQQSGPELVKPGASVKISCKVSGYTFTDYYMNWVKQSHGKSLEWIGDINPNNGGAIYNQKFKGKATLTVDKSSSIAYMELRSLTSEDSAVYYCTSGIITEIAEDFWGQGTTLTVSS
VL: DIVMTQSQKFMSTSVGDRVSVTCKASQNVGTNVVWYQQKPGQSPKALIHSASYRYSGVPDRFKGSGSGTDFTLTITNVQSEDLAGFFCQQYKTYPYTFGGGTQLEIKRA
Inhibition of PCSK9/LDL receptor interaction (in words) (PCSK9/LDLR interaction): effectively inhibit interaction between PCSK9 and the LDL receptor | % inhibition at 450 nM of antibody (PCSK9/LDLR interaction; 450 nM antibody, relative to the assay with no antibody added): 88* % | Inhibition of PCSK9-mediated LDL receptor degradation (in words) (PCSK9 [1]): inhibit PCSK9-mediated LDL receptor degradation | Relative level of inhibition of LDLR degradation observed (PCSK9 [1]): +++ | LDLR/GAPDH (PCSK9 [2]; Table 7, lightest exposure of LDLR panel vs. GAPDH panel): 0.272 AU and 0.278 AU and 0.262 AU and 0.128 AU | LDLR (band intensity) (PCSK9 [2]; Table 7, lightest exposure of LDLR panel): 13714 and 13766 and 12508 and 5977 | Mean LDLR/GAPDH (PCSK9 [2]; Table 7, lightest exposure): 0.235 AU | % Change (PCSK9 [2]; Table 7, lightest exposure): −48.0% | LDLR/GAPDH (PCSK9 [2]; Table 8, darker exposure of LDLR panel vs. lightest GAPDH panel): 0.439 AU and 0.396 AU and 0.426 AU and 0.249 AU | LDLR (band intensity) (PCSK9 [2]; Table 8, darker exposure of LDLR panel): 19883 and 18057 and 18642 and 10669 | Mean LDLR/GAPDH (PCSK9 [2]; Table 8, darker exposure): 0.377 AU | % Change (PCSK9 [2]; Table 8, darker exposure): −35.2% | Plasma total cholesterol level (PCSK9 [3]): 72.05 mg/dL

B6: 29C10: mouse anti-human PCSK9 antibody (IgG2a); heavy chain SEQ ID NO: 34, light chain SEQ ID NO: 38 (antibody, listed as Mus musculus, V domains shown)
VH: EVLLQQSVAELVRPGASVRLSCTASGFNIKDTYIHWVRQRPEQGLEWFGWIDPANGYTKYAPNFQGKATLTTDTSSNTAYLHLSSLTSEDSAIYYCARGYYRYYSLDYWGQGTSVTVSS
VL: DIQMTQTTSSLSASLGDRVTISCRASQDISNYLNWYQQKPDGTVKLLIYYSSRLHSGVPSRFSGRGSGTDYSLTISTLEQEDIATYFCQQGKTLPLTFGAGTKLELKRA
Inhibition of PCSK9/LDL receptor interaction (in words) (PCSK9/LDLR interaction): effectively inhibit interaction between PCSK9 and the LDL receptor | Inhibition of PCSK9-mediated LDL receptor degradation (in words) (PCSK9 [1]): inhibit PCSK9-mediated LDL receptor degradation | Relative level of inhibition of LDLR degradation observed (PCSK9 [1]): +
